Reference: the supplement of paper PMC9112550, “Optimization of the antimicrobial peptide Bac7 by deep mutational scanning” (BMC Biology, 2022)

System: Escherichia coli TOP10
Assay: shrunken log2 fold change of peptide-encoding DNA abundance (4.5 h post-induction vs induction); higher = less antimicrobial activity (less host growth inhibition)
Settings: time post-induction: 4.5 h; library: site-saturation at positions 5, 18, 19, 20
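Further: peptides expressed intracellularly from a pBAD plasmid library in pooled LB shake-flask culture, induced with 0.3% L-arabinose, DNA abundance read by NGS, three biological replicates, DESeq2 with apeglm shrinkage.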

Row | Sequence | shrunken log2 fold change
1 | RRIRPRPPRLPRPRPRPPHQPRP | 0.146
2 | RRIRPRPPRLPRPRPRPPIKPRP | 0.355
3 | RRIRPRPPRLPRPRPRPPKVPRP | 0.122
4 | RRIRPRPPRLPRPRPRPPKYPRP | -0.148
5 | RRIRPRPPRLPRPRPRPPLNPRP | 0.275
6 | RRIRPRPPRLPRPRPRPPMPPRP | 0.442
7 | RRIRPRPPRLPRPRPRPPMQPRP | 0.421
8 | RRIRPRPPRLPRPRPRPPMSPRP | -0.0803
9 | RRIRPRPPRLPRPRPRPPQFPRP | 0.297
10 | RRIRPRPPRLPRPRPRPPRMPRP | 0.412
11 | RRIRPRPPRLPRPRPRPPSNPRP | -0.0339
12 | RRIRPRPPRLPRPRPRPPTQPRP | 0.12
13 | RRIRPRPPRLPRPRPRPPVEPRP | 0.0793
14 | RRIRPRPPRLPRPRPRPPVYPRP | 0.162
15 | RRIRPRPPRLPRPRPRPPWLPRP | 0.57
16 | RRIRPRPPRLPRPRPRPPWNPRP | 0.77
17 | RRIRPRPPRLPRPRPRPPWVPRP | 0.356
18 | RRIRPRPPRLPRPRPRPQANPRP | -0.137
19 | RRIRPRPPRLPRPRPRPQDNPRP | -0.548
20 | RRIRPRPPRLPRPRPRPQEWPRP | 0.0248
21 | RRIRPRPPRLPRPRPRPQFEPRP | 0.0184
22 | RRIRPRPPRLPRPRPRPQFVPRP | -0.528
23 | RRIRPRPPRLPRPRPRPQGGPRP | 0.332
24 | RRIRPRPPRLPRPRPRPQGRPRP | -0.0433
25 | RRIRPRPPRLPRPRPRPQGWPRP | 0.542

Row | Sequence | shrunken log2 fold change
26 | RRIRPRPPRLPRPRPRPQHTPRP | 0.769
27 | RRIRPRPPRLPRPRPRPQLTPRP | -0.221
28 | RRIRPRPPRLPRPRPRPQMVPRP | -0.491
29 | RRIRPRPPRLPRPRPRPQQQPRP | -0.17
30 | RRIRPRPPRLPRPRPRPQRLPRP | 0.0191
31 | RRIRPRPPRLPRPRPRPQTRPRP | 0.227
32 | RRIRPRPPRLPRPRPRPQVQPRP | -0.148
33 | RRIRPRPPRLPRPRPRPQVYPRP | 0.962
34 | RRIRPRPPRLPRPRPRPQWEPRP | 0.155
35 | RRIRPRPPRLPRPRPRPRAIPRP | 0.503
36 | RRIRPRPPRLPRPRPRPRASPRP | 0.548
37 | RRIRPRPPRLPRPRPRPRCPPRP | 0.208
38 | RRIRPRPPRLPRPRPRPRDFPRP | 0.317
39 | RRIRPRPPRLPRPRPRPRETPRP | 0.574
40 | RRIRPRPPRLPRPRPRPRFLPRP | 0.146
41 | RRIRPRPPRLPRPRPRPRGGPRP | 0.605
42 | RRIRPRPPRLPRPRPRPRICPRP | 0.0562
43 | RRIRPRPPRLPRPRPRPRKLPRP | 0.342
44 | RRIRPRPPRLPRPRPRPRLDPRP | 0.0787
45 | RRIRPRPPRLPRPRPRPRMPPRP | 0.249
46 | RRIRPRPPRLPRPRPRPRNYPRP | 0.000451
47 | RRIRPRPPRLPRPRPRPRQSPRP | 0.0298
48 | RRIRPRPPRLPRPRPRPRQTPRP | 0.338
49 | RRIRPRPPRLPRPRPRPRWLPRP | 0.299
50 | RRIRPRPPRLPRPRPRPRWVPRP | 0.164

Row | Sequence | shrunken log2 fold change
51 | RRIRPRPPRLPRPRPRPRYHPRP | -0.224
52 | RRIRPRPPRLPRPRPRPRYQPRP | 0.0923
53 | RRIRPRPPRLPRPRPRPSAEPRP | 0.257
54 | RRIRPRPPRLPRPRPRPSAPPRP | 0.017
55 | RRIRPRPPRLPRPRPRPSAWPRP | 0.368
56 | RRIRPRPPRLPRPRPRPSDIPRP | -0.417
57 | RRIRPRPPRLPRPRPRPSDRPRP | -0.00705
58 | RRIRPRPPRLPRPRPRPSEGPRP | -0.148
59 | RRIRPRPPRLPRPRPRPSFKPRP | -0.123
60 | RRIRPRPPRLPRPRPRPSGYPRP | -0.204
61 | RRIRPRPPRLPRPRPRPSIEPRP | -0.0734
62 | RRIRPRPPRLPRPRPRPSINPRP | -0.756
63 | RRIRPRPPRLPRPRPRPSKQPRP | -0.116
64 | RRIRPRPPRLPRPRPRPSLAPRP | 0.185
65 | RRIRPRPPRLPRPRPRPSLIPRP | -0.181
66 | RRIRPRPPRLPRPRPRPSPPPRP | 0.0408
67 | RRIRPRPPRLPRPRPRPSPQPRP | 0.2
68 | RRIRPRPPRLPRPRPRPSPWPRP | 0.0349
69 | RRIRPRPPRLPRPRPRPSQLPRP | -0.0897
70 | RRIRPRPPRLPRPRPRPSQPPRP | 0.122
71 | RRIRPRPPRLPRPRPRPSQYPRP | -0.415
72 | RRIRPRPPRLPRPRPRPSSDPRP | -0.317
73 | RRIRPRPPRLPRPRPRPSVDPRP | -0.187
74 | RRIRPRPPRLPRPRPRPSVMPRP | -0.123
75 | RRIRPRPPRLPRPRPRPSVRPRP | 0.129

Row | Sequence | shrunken log2 fold change
76 | RRIRPRPPRLPRPRPRPSYQPRP | -0.493
77 | RRIRPRPPRLPRPRPRPSYRPRP | -0.342
78 | RRIRPRPPRLPRPRPRPSYSPRP | -0.149
79 | RRIRPRPPRLPRPRPRPTCYPRP | -0.127
80 | RRIRPRPPRLPRPRPRPTDTPRP | -0.00249
81 | RRIRPRPPRLPRPRPRPTEMPRP | 0.218
82 | RRIRPRPPRLPRPRPRPTEPPRP | 0.179
83 | RRIRPRPPRLPRPRPRPTEQPRP | 0.307
84 | RRIRPRPPRLPRPRPRPTFKPRP | 0.0985
85 | RRIRPRPPRLPRPRPRPTGDPRP | 0.649
86 | RRIRPRPPRLPRPRPRPTGTPRP | 0.104
87 | RRIRPRPPRLPRPRPRPTGWPRP | 0.519
88 | RRIRPRPPRLPRPRPRPTLKPRP | 0.114
89 | RRIRPRPPRLPRPRPRPTPMPRP | 0.208
90 | RRIRPRPPRLPRPRPRPTQPPRP | 0.402
91 | RRIRPRPPRLPRPRPRPTQYPRP | 0.287
92 | RRIRPRPPRLPRPRPRPTVFPRP | 0.0272
93 | RRIRPRPPRLPRPRPRPTVMPRP | 0.0636
94 | RRIRPRPPRLPRPRPRPTWSPRP | 0.324
95 | RRIRPRPPRLPRPRPRPTYKPRP | -0.455
96 | RRIRPRPPRLPRPRPRPTYYPRP | -0.636
97 | RRIRPRPPRLPRPRPRPVAIPRP | -0.0776
98 | RRIRPRPPRLPRPRPRPVAPPRP | 0.411
99 | RRIRPRPPRLPRPRPRPVAQPRP | 0.123
100 | RRIRPRPPRLPRPRPRPVCDPRP | 0.333

Row | Sequence | shrunken log2 fold change
101 | RRIRPRPPRLPRPRPRPVCFPRP | -0.027
102 | RRIRPRPPRLPRPRPRPVCHPRP | -0.0724
103 | RRIRPRPPRLPRPRPRPVDFPRP | 0.0795
104 | RRIRPRPPRLPRPRPRPVFFPRP | 0.213
105 | RRIRPRPPRLPRPRPRPVGFPRP | 0.37
106 | RRIRPRPPRLPRPRPRPVGTPRP | 0.1
107 | RRIRPRPPRLPRPRPRPVHIPRP | -0.208
108 | RRIRPRPPRLPRPRPRPVHQPRP | -0.00254
109 | RRIRPRPPRLPRPRPRPVIEPRP | -0.0347
110 | RRIRPRPPRLPRPRPRPVIQPRP | -0.203
111 | RRIRPRPPRLPRPRPRPVITPRP | -0.123
112 | RRIRPRPPRLPRPRPRPVKMPRP | 0.137
113 | RRIRPRPPRLPRPRPRPVLEPRP | -0.147
114 | RRIRPRPPRLPRPRPRPVLQPRP | 0.162
115 | RRIRPRPPRLPRPRPRPVLWPRP | 0.374
116 | RRIRPRPPRLPRPRPRPVMMPRP | 3.4
117 | RRIRPRPPRLPRPRPRPVPFPRP | -0.303
118 | RRIRPRPPRLPRPRPRPVPLPRP | 0.0768
119 | RRIRPRPPRLPRPRPRPVQVPRP | -0.119
120 | RRIRPRPPRLPRPRPRPVRCPRP | 0.545
121 | RRIRPRPPRLPRPRPRPVSFPRP | 0.0766
122 | RRIRPRPPRLPRPRPRPVTHPRP | -0.227
123 | RRIRPRPPRLPRPRPRPVVNPRP | -0.229
124 | RRIRPRPPRLPRPRPRPVVTPRP | -0.207
125 | RRIRPRPPRLPRPRPRPVVWPRP | 0.535

Row | Sequence | shrunken log2 fold change
126 | RRIRPRPPRLPRPRPRPVYLPRP | -0.6
127 | RRIRPRPPRLPRPRPRPVYTPRP | -0.234
128 | RRIRPRPPRLPRPRPRPVYYPRP | -0.348
129 | RRIRPRPPRLPRPRPRPWAWPRP | 0.0719
130 | RRIRPRPPRLPRPRPRPWCMPRP | -0.355
131 | RRIRPRPPRLPRPRPRPWDLPRP | -0.0362
132 | RRIRPRPPRLPRPRPRPWDMPRP | -0.0229
133 | RRIRPRPPRLPRPRPRPWEMPRP | -0.157
134 | RRIRPRPPRLPRPRPRPWGCPRP | -0.0706
135 | RRIRPRPPRLPRPRPRPWHGPRP | 0.0257
136 | RRIRPRPPRLPRPRPRPWIHPRP | -0.44
137 | RRIRPRPPRLPRPRPRPWKMPRP | 0.0124
138 | RRIRPRPPRLPRPRPRPWMPPRP | -0.00504
139 | RRIRPRPPRLPRPRPRPWNGPRP | 0.0165
140 | RRIRPRPPRLPRPRPRPWNKPRP | 0.163
141 | RRIRPRPPRLPRPRPRPWPVPRP | 0.317
142 | RRIRPRPPRLPRPRPRPWQPPRP | -0.0506
143 | RRIRPRPPRLPRPRPRPWRWPRP | 0.915
144 | RRIRPRPPRLPRPRPRPWTCPRP | -0.0575
145 | RRIRPRPPRLPRPRPRPWTNPRP | -0.0167
146 | RRIRPRPPRLPRPRPRPWVPPRP | -0.228
147 | RRIRPRPPRLPRPRPRPWVRPRP | 0.113
148 | RRIRPRPPRLPRPRPRPWWHPRP | 0.0413
149 | RRIRPRPPRLPRPRPRPWYDPRP | -0.00228
150 | RRIRPRPPRLPRPRPRPWYEPRP | -0.441
